Results published in the DeepSol protein solubility set.

Assay: soluble on expression in E. coli; label from the status in PepcDB or PDB records

Soluble on expression in E. coli, not soluble:
MGSDKIHHHHHHMAERFRPLAMAGLAALALVLAGCGDTLESFGGPTMGSTYSIKYVRGASAPDVQTAKAAVEAILAEVDRQMSTYRDDSLVSRFNALPAQSCMELPLPMLELLRYGGELSEQSQGAFDMTVEPLMNLWGFGPQARVEKVPSAEQIAAVRRDVGHRHLRIDGQRLCKDAAVQLDFDSIAAGYTVDAVGERLKELGVRSYLAEITGELKAEGRKPDGTPWRIAIEAPREGQRVAQQVLALDGYGVSTSGDYRNYFEENGQRYSHTFDPRTGAPIDHHLASVTVIDPSTRNADGLSTLLMVLGPEEGYRFAEKHRLAALFVSRQGNGFDSRTTPRYEQLFGNQGERP
MGSDKIHHHHHHMAETAPAPYFSEIARGPDQVEAHWLTTQDGQRIRAGLWRSHGPSAGTILLFPGRTEYIEKYGPLAIDLTDRGFDVLTVDWRGQGLADRSLSDGRLGHVAEFGAFQLDVAALVAHAEALNLPRPWYLLGHSMGGAIGLRALHEGLPVAACAFTAPMWAIRIPFALRPAARLLARFGTALGVSEKLVPTTTIEQYVQVTPFEGNTLTNDPEMYAFLQMQMTQHPELALGGPTVQWLSQAMLECADLRARPSPDVPCVTFLGENEQIVATEAIHDRMARWPSGKLEMIPDAQHEILMEIPQTRRQTCAILTAHFKKHV
MGSDKIHHHHHHMAFDEMINADSSPRQPYSTYHQWYASQDRNRLIAKSKEAEKIFRKTGITFAVYGHADSSEKLIPFDLIPRIISGREWRRLAQGIEQRVIALNAFLDDIYHKQEIIRAGRIPRELVEKNDTFLPQMIGFRPPGGVYTHIVGTDIVRTGEDQYYVLEDNARTPSGVSYMLENRETMMQMFPELFHQNRVRPVENYPNLLRQSLSSLAPAGCEGKPRVAVLTPGIYNSAFYEHAFLADMMGVELVEGSDLRVIDGRVKMRTTRGYEAIDVLYRRVDDDFLDPLTFRPDSALGIPGIMDVYRAGNITIANAPGTGISDDKAIYSYMPEIVEFYTGRKPLLENVPTWRCSEPESLKYVLEHLAELVVKEVHGSGGYGMLVGPTATKKECAAFAEKLKSRPGNYIAQPTLSLSTVPIMVNKGIAPRHVDLRPYVLVSDKVQIIPGGLTRVALKEGSLVVNSSQGGGTKDTWVLED
MGSDKIHHHHHHMAFNQRTVVMIGPGEHYVTAKNEVIKTLLGSCVAVCLYDPKAQVIGMNHFLLAADRRKFTHFLDSRAGYYGVHAMEILINAMLKRGAQRKYLQSKIFGGANVLSLCADNILNHYDIGGMNIDFVRHFLQRERIPIISEDIGGHCGRVIYFDPTDYSVYRSLIEHKYEEIASLQDEEYRYFNQASEDIHSSGVPVVIWSD
MGSDKIHHHHHHMAGGSFMDDLRRGAGDLSVRASVREQDLNTYIMKVSCPARSGIVAAVSGYLARSGCNINDSSQFTDQETARFFMRLSFISEQGSGREALLDGFGSVAADFDMDYDIHDLSQKKKIVIMVSRFGHCLNDLLYRSRIGALPVEIVAVISNHLDYQKQVVNEDIPFHHIRVTPETKPEAEGAILQVVRDTGAELVVLARYMQVLSDQLCQEMSGRIINIHHSFLPSFKGANPYKQAYERGVRLIGATAHYVTADLDEGPIIEQDTIRVTHAQSGMDYVSLGRDVESQVLARAIHAHIHQRVFLNGNKTVVFPASPGEHVSERMG
MGSDKIHHHHHHMAHEAQKAIARNSLLIRSLPEQHVDALLSQAVWRSYDRGETLFLQEEKAQAIHVVIDGWVKLFRMTPTGSEAVVSVFTRGESFGEAVALRNTPYPVSAEAVTPCEVMHIPSPVFVSLMRRDPEICISILATTFGHLHSLVAQLEQLKAQTGAQRVAEFLLELCDCDTGACEVTLPYDKMLIAGRLGMKPESLSRAFSRLKAAGVTVKRNHAEIEDIALLRDYAESDPADSWSKS
MGSDKIHHHHHHMAKADLDKDPFDVASMFDDVGKNYDLTNTVLSFGQDRVWRKRTRQRLDLKPGEKVLDLAAGTAVSTVELAKSGAFCVACDFSQGMLAAGKDRDVSKVVGDGMQLPFADNSFDAVTISYGLRNIHDFRAGLKEMARVTKPGGRLTVAEFSTPVIPVFGTVYKEYLMRLLPQAARAVSSNPEAYIYLADSIRAWPSQAELAREINQNGWSDCGWQNLTFGIVALHSAIKPEN
MGSDKIHHHHHHMAKAFASQGDMSEKKISFTEVGEGLYAFTAEGDPNSGVIIGDDSVMVVEAQATPRLAQKVIDCIREVTDKPISHVVLTHYHAVRVLGASAFGAGQVIMSDTARSMVVERGQEDWDSEFQRFPRLFEGHESIPGLTWPTTTFSDSMTVYLGKRRVDIMHLGRAHTAGDAVIHVPDQNVMFTGDIVEYHSACYCGDGHFNDWGNTLDNIAWFDVDAIAPGRGDALVGKEMVNAAIENTRDFVQSTYRPAARVAARGGSLKEAWDAVRAECDPKFADYAIYEHCLPFNVARAYDEARGIDTPRIWTAQRDLEMWEALQG
MGSDKIHHHHHHMAKKLFDYQLDETVDGYFLLKDSEVRIAKNGKKFLAINFQDTSGEISGKFWDASDTDVENFQAGRIVHLKGKRENYQGNPQIKIQQMRLTHSGEPQEVQQFVEHAPLKTDTMADEINQFVFEITEPNWNRIVRHMLTTFHDRFFSYPAAKKNHHAFAGGLAYHTLSILRLAKAVADQYPHVNRALLYAGAILHDMGKTIEMSGPVSTTYTLAGNLVGHIVLIDEQIVETCQQLKIDEQSESVLVLRHTILAHHGLLEYGSPVRPHIMEAEILHDLDELDASIQMMQTSLGHAEPGTYTERIFAMDGRNFYRPTGDQTKGELPDEQN
MGSDKIHHHHHHMAKKVAVLAVNPVNGCGLFQYLEAFFENGISYKVFAVSDTKEIKTNSGMVLIVDDVIANLKGHEDEFDALVFSCGDAVPVFQQYANQPYNVDLMEVIKTFGEKGKMMIGHCAGAMMFDFTGITKGKKVAVHPLAKPAIQNGIATDEKSEIDGNFFTAQDENTIWTMLPKVIEALK
MGSDKIHHHHHHMANGTTPSVGIALGSGAAKGWAHIGVLNGLAAMGIKPDKVAGCSVGALVGAAYAHDHLPELEEWVRSFSSWDVLGLMDIRWRKGGLIGGDKVFDVLQARIGDVNIENLNRPFAAVATDLYSGQEIWFTEGDLRQAVRASCSMPGILAPVRQGDRWLVDGAVVNPVPVSVSRAMGVDVVIAVDLYGYHSGRIQVLPVSMTSQKNVEAEMDMSARQETGFMDLFARGRDYVSNLTDKFSLGTKSNPGMIAVMSQSMGILEQRHKRARLMGDPPDICIVPEVGNIGTMEFHRADEAIAAGEAAVEKVAHLIEAALWKG
MGSDKIHHHHHHMAQTVSIIVSPEDQVRLAEVIGDRNSPQKHVQRARIVLHSAEHRPVLEVARDIGISRPAVWRWQLRYAEQGVDGLLRDKTRKPGKPPLPLGTVARVLALPCSNPPGSVTHWTGRAVAKAVGISLRAVQRIWDAHHLQPHRLRTFKKSKDPAFTEKVEDVVGLYMEPPCHAVVLSIDEKSQIQALDRTQPGLPLKPGKCATMTHDYKRNGTTTLFAALNILDGTVLGRCMQKHRHQEFIKFLNAVERAVPAGKIIHAILDNYGTHKHPKVRQWLADHPRWVFHFTPTL
MGSDKIHHHHHHMARLSEGWSKEPFFLFFHPPKSPTKKENIKMNYRETLQAVDTEKALSVIGINSTLQGAYVKFNCPECEQQALIKAYGEKKNLWYCPKCKKSGHIISLTMTKKNIQWEEAKDLLLKARNGVKKITEEFNLKYDLQYNDFIKDKGLSEDICKFLEIGTPKGKTMLSGCVAFLVRDEVGMRVAYFGIKMKDEKHVFHKSFNPEQYLYGFQNLDFAYDVYFTTDLFECIKHIENGFQCVCNFGLPYISNEQMELLEKAERVTFSIRDELVKPFALQLTQRQKFYRFIK
MGSDKIHHHHHHMASILAVDVGTTSIKAGIVSTENFEAESTQSTRAVVEYPKKHWAEKDPEKLWNSIVEVCKPLAEKANPDAIVFGAHMAGVVPVDGEGNALRNIITWLDERAAGLPEDVWKGLIKIQGYSLTKLIKFLRLTGGAPSRTGKDPISKIVWIRENEPDVFGKTFKMLDVRGYLVARATGNFVTSPDEAHLTWLADTRGGKARWSESILKDYALSASLFPEIKNCTEIAGYLRPEVRKEFGLEGDVPVMVGSGDVAAAAVGSGAVKDYECHIYVGTSDWVAAHIPQRKTDIFHFIGSLLSAIPEKYLLIAEQEVAAGALEWAMRLVGIQGEYELVKELVEKAPAGKLIFMPWFYGERAPIDDPYVRGGLVNVGLDSGREEVLRAMMEGVALNIKWVFGYVEKMTAPQQMVSIVGGGALFDIWCQIISNAVRRPLRRIKHPEETGLRGLATMAAVGLGEESFESAAAKFEVDRVFKPDDEEAKVYDRLFEYYKELYSKLKKVYRKLNSAEY
MGSDKIHHHHHHMASSSEGVSVLEIECKVVTPMFSRGAAEPKWENGNRVYPFELRPQSIKGVLRFWFRAIAPTVIDIYSLEGLENLSKKEKERWEKEKYKGLKYLEGLIFGSQERKSSFSLEVKVEGESQALGKYMNNRFSFTDDRLKDTKYALYGLYDKSGIYEYLQEGKNFIIILQTANDSIKGIILSLLKLVSTFSGFGAKTRKGFGEFEIVDPKLTRNDYNLVISECQEHIREFVNHHNSSSKVKIKLGRTNFNGIPDFPCFCDYKIFEITKFSGNSPLEVLREVFKVGRNFKGWYPSLKQKMRFSEGDCVKDLVEALEGLLKGRKTEKKIEIPTAVVGLPIQYQNLGRGEIRRLKVIVSSSLRGLGIDDIDGRKASPLFLSVHEGERGKWKLVVLLMRSRVTNDGELITEVKGGKTPSSGIKTIVKEEKDYKNLLEWIKKLGGKEIQGG
MGSDKIHHHHHHMATAIRGLKLQTEDYFLTDKNAVMVAERHPQPVFPLHHHDFDELVIVWRGNGLHLWNDVPYRITRGDMFYVSAHDRHSYESVHELELDNILYIRNRLTLSADWQTLLPSGELPQSQRHWCLGSEGMDTIREKVDALTQECMKSDALSLQLSEALLLQIALLAARYRHSPDSPQLADAHQLDMLMNALRASIAAPFRFEAFCEQHHFSARSLRSRFKEQTGMSVPHYLRQLRLCKAMELLRYDLQTIGDVAALCGFEDSNYFSVVFHQAFGVSPSAYRQRFLNVE
MGSDKIHHHHHHMATENKIKYFENREDWRKWLMDNFETEDEIWFVFPLKSSGEKSIAYNDAVEEALCFEWIDSTIKPLDKEHRIQRFTPRKPKSTYSQANKERLKWLLANKMIHPEFEDKIRTVLSDPFIFPNDIMDRLKEDEIAWRNYRHFSDAYKRIRIAYIEAARKRPEEFEKRLNNFICKVKENKMITGFGGIEKYY
MGSDKIHHHHHHMATHNHTLTMEWIVDRTRTVYSLPYFYERLNEAINHPRSSIDDVARIIIDDQGLTARILKLANSPMFGFFSKVDSISKAVTIIGTQQLRDLALAASVMDVFKDIPRELMDMVLFWRHSIACGIVARNLAIYLRESNVERFFVAGILHDVGQLVMCTAIPEKVSEVLARNRLESRFLDATERDALGFDHAALGGALLRAWKIPATINEPVAYHHEPGKAEQFSLEVSIIHLADIICQALGYGASGEGGVPLLDPAAWDRLGVPVSILTTIVKQSEPQVEETFAILVEG
MGSDKIHHHHHHMATTLFIQRGDIAAWLADTAATHTVYAPLRDKTGVRFHRLCAQDAAAQTQALELDRQAQTPPKNVLLPACETLLEFSYAKQEDGSTSLDVQPVMPQGAVLLFGPRPCDARAFTVFDRVYDAGRGKDPYYTARRAATVVASVVCTRPEQSCFCTAVGGAPDDTEGSDILFTPVQDGFIVRPLTQAAEAVLRHPLFTEAAHREEEAADVCAAARAAVPCAPADFTAAPEPVAALFDDMEFWQSVTAKCLSCGACTYLCPTCYCFNITDESNGLEGRRLRTWDNCMSFQFTLEGSGHNPRPTKAHRYRNRIGHKFSYYPRIHDGALSCVGCGRCISSCPVTMDIRRIVHSAMQRAQCATPEQAHE
